From paper PMC4942342

Target: sHRPb-NLG (evolved sHRPb fused to neuroligin) (horseradish | not stated)
Test: split reporter

signal to noise ratio (fluorescence intensity relative to background): 1.5 to 13.4
Substance: sHRPa-NRX (evolved sHRPa fused to neurexin)
